Here are results for 25 molecules from patent EP4803541A1 (Changchun Genescience Pharmaceutical Co., Ltd., dated 2026).

The target of one assay is rhGH protein (UniProt: P01241) (human) (UniProt P01241). The experiment in a line: ELISA on coated rhGH, anti-6*His HRP; sample after 0.5M NaOH 24h, against WT. Further details: unit not given beside the values.
In assay [1] the target is T1, rhGH protein (UniProt: P01241) (human, UniProt P01241 27-217).
T1 construct: Coated at 5 ug/ml in the ELISA; also called human growth hormone
T1 sequence (P01241 27-217 limits assumed, one chain of several): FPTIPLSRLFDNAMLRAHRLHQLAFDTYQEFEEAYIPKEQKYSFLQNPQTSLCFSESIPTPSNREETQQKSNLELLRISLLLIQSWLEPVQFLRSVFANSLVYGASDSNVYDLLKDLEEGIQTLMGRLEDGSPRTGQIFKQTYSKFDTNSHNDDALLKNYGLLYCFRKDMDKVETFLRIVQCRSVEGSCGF
The experiment in a line: ELISA on coated rhGH; sample after 0.5M NaOH 24h.

The target of assay [2] is GH (GH stock solution) (UniProt P01241). Kind of assay: affinity chromatography, VHH-conjugated medium loaded with GH stock solution; medium in 0.1M NaOH 0h.
Sequence of GH (GH stock solution) (P01241 27-217 limits assumed): as the sequence (P01241 27-217 limits assumed, one chain of several) above
The target is the same in assay [3]. The experiment in a line: affinity chromatography, VHH-conjugated medium loaded with GH stock solution; medium in 0.5M NaOH 0h.
The target is the same in assay [4]. The experiment in a line: affinity chromatography, VHH-conjugated medium loaded with GH stock solution; medium in 0.5M NaOH 6h.
Assay [5] shares this target. Kind of assay: affinity chromatography, VHH-conjugated medium loaded with GH stock solution; medium in 0.1M NaOH 24h.
For assay [6] the target is unchanged. The experiment in a line: affinity chromatography, VHH-conjugated medium loaded with GH stock solution; medium in 0.1M NaOH 32h.
Assay [7] has the same target. Kind of assay: affinity chromatography, VHH-conjugated medium loaded with GH stock solution; medium in 0.5M NaOH 24h.

Sequence of rhGH protein (UniProt: P01241) (human) (UniProt P01241) (P01241 27-217 limits assumed, one chain of several): as above

B1: M11 (First round) (VHH)
VHH: QVQLVESGGGLAQAGGSLRLSCAVSGMPEFARAMGWFRQAPGKERELLAAIEGIGATTYYADSVKGRFTISRDDAANTVLLQMNSLKPDDTAVYYCAAAFSVTIPTRARHWVDWGQGTLVTVSS
Turning to B1, the EC50 against that of the WT after 0.5M alkali (% higher than WT) with rhGH protein was 50.

B2: M22 (First round) (VHH)
VHH: QVQLVESGGGKAQAGGSLRLSCAVSGMPEFARAMGWFRQAPGKERELLAAIEGIGATTYYADSVKGRFTISRDDAANTVLLQMNSLKPDDTAVYYCAAAFSVTIPTRARHWVDWGPGTLVTVSS
B2 displayed an EC50 against that of the WT after 0.5M alkali (% higher than WT) with rhGH protein of 50.

B3: M34 (First round) (VHH)
VHH: QVQLVESGGGLAQAGGSLRLSCAVSGMPEFARAMGWFRQAPGKERELLAAIEGIGATTYYADSVKGRFTISRDDAASTVLLQMNSLKPDDTAVYYCAAAFSVTIPTRARHWVDWGPGTLVTVSS
The molecule B3 came in with an EC50 against that of the WT after 0.5M alkali (% higher than WT) with rhGH protein of 50.

B4: M24 (First round) (VHH)
VHH: QVQLVESGGGLAQAGGSLRLSCAVSGMPEFARAMGWFRQAPGKERELLAAIEGIGATTYYADSVKGRFTISRDDAANTVLLQMNSLKPDDTAVYYCAAAFSVTIPTRARHFVDWGPGTLVTVSS
For the molecule B4, the EC50 against that of the WT after 0.5M alkali (% higher than WT) in the assay with rhGH protein was determined as 50.

B5: M53 (Second round) (VHH)
VHH: QVQLVESGGGLAQAGGSLRLSCAVSGMPEFARAMGWFRQAPGKERELLAAIEGIGDTTYYADSVKGRFTISRDDAANTVLLQMNSLKPDDTAVYYCAAAFSVTIPTRAEHWVDWGPGTLVTVSS
notes: Entry already carries A57D; R100eE); tail DDDDK-SGGGGS-HHHHHH
As to B5, in assay [1], the binding result is recorded as “binds”.

B6: M33 (First round) (VHH)
VHH: QVQLVESGGGLAQAGGSLRLSCAVSGMPEFARAMGWFRQAPGKERELLAAIEGIGDTTYYADSVKGRFTISRDDAANTVLLQMNSLKPDDTAVYYCAAAFSVTIPTRARHWVDWGPGTLVTVSS
In the assay with rhGH protein, B6 returned an EC50 against that of the WT after 0.5M alkali (% higher than WT) of 50.

B7: M28 (First round) (VHH)
VHH: QVQLVESGGGLAQAGGSLTLSCAVSGMPEFARAMGWFRQAPGKERELLAAIEGIGATTYYADSVKGRFTISRDDAANTVLLQMNSLKPDDTAVYYCAAAFSVTIPTRARHWVDWGPGTLVTVSS
Consider B7, for which the EC50 against that of the WT after 0.5M alkali (% higher than WT) with rhGH protein was 50.

B8: M66 (Second round) (VHH)
VHH: QVQLVESGGGLAQPGGSLRLSCAVSGMTEFARAMGWFRQAPGKERELLAAIEGIGATTYYADSVKGRFTISRDDAANTVLLQMNSLKPDDTAVYYCAAAFSVTIPTRARHWVDWGPGTLVTVSS
notes: Entry already carries P29T; P28T); tail DDDDK-SGGGGS-HHHHHH
Consider B8, for which the binding result in assay [1] is recorded as “binds”.

B9: M82 (Second round) (VHH)
VHH: QVQLVESGGGLAQAGGSLRLSCAVSGMPEFARAMGWFRQAPGKERELLAAIEGIGDTTYYADSVKGRFTISRDDAANTVLLQMNSLKPDDTAVYYCAAAFSVTIPTRAEHWVYWGPGTLVTVSS
notes: Entry already carries A57D; G134R; R110E; R100eE; D102Y); tail DDDDK-SGGRGS-HHHHHH
B9: the binding result in assay [1] is given as “binds”.

B10: M79 (Second round) (VHH)
VHH: QVQLVESGGGLAQAGGSLRLSCAVSGMPEFARAMGWFRQAPGKERELVAAIEGIGDTTYYADSVKGRFTISRDDAANTVLLQMNSLKPDDTAVYYCAAAFSVTIPTRAEHWVDWGPGTLVTVSS
notes: Entry already carries A57D; R110E; A55D; R100eE); tail DDDDK-SGGGGS-HHHHHH
For the molecule B10, in assay [1], the binding result was “binds”.

B11: M81 (Second round) (VHH)
VHH: QVQLVESGGGLAQAGGSLRLSCAVSGMPEFARAMGWFRQAPGKERELLAAIEGIGDTTYYADSVKGRFTISRDDAANTVLLQMNSLKPDDTAVYYCAAAFSVTIPTRAEHWVDWGQGTLVTVSS
notes: Entry already carries A57D; G134R; P117Q; R100eE; P105Q); tail DDDDK-SGGRGS-HHHHHH
Turning to B11, the binding result in assay [1] was “binds”.

B12: M75 (Second round) (VHH)
VHH: QVQLVESGGGLAQAGGSLRLSCAVSGMPEFARAMGWFRQAPGKERELLAAIEGIGDTTYYADSVKGRFTISRDDAANTVLLQMNSLKPDDTAVYYCAAAFSVTIPTRAEHWVYWGPGTLVTVSS
notes: Entry already carries A57D; R110E; R100eE; D102Y); tail DDDDK-SGGGGS-HHHHHH
In the case of B12, the binding result in assay [1] is recorded as “binds”.

B13: M67 (Second round) (VHH)
VHH: QVQLVESGGGLAQPGGSLRLSCAVSGMPEFARAMGWFRQAPGKERELLAAIEGIGATTYYADSVKGRFTISRDDAANTVLLQMNSLKPDDTAVYYCAAAFSVTIPTRARHWVDWGQGTLVTVSS
notes: Entry already carries A15P; P105Q); tail DDDDK-SGGGGS-HHHHHH
Take B13: the binding result in assay [1] is “binds”. The dynamic binding capacity at 10% breakthrough was 15.9 in the assay with GH (GH stock solution) [2]; 15.9 with GH (GH stock solution) [3]; 10.2 with GH (GH stock solution) [4]; 16.2 in the assay with GH (GH stock solution) [5]; 14.9 with GH (GH stock solution) [6]; 4.23 in the assay with GH (GH stock solution) [7].

B14: M88 (Second round) (VHH)
VHH: QVQLVESGGGLAQAGGSLRLSCAVSGMPEFARAMGWFRQAPGKERELVAAIEGIGDTTYYADSVKGRFTISRDDAANTVLLQMNSLKPDDTAVYYCAAAFSVTIPTRAEHWVDWGPGTLVTVSS
notes: Entry already carries A57D; G134R; R110E; A55D; R100eE); tail DDDDK-SGGRGS-HHHHHH
In the case of B14, the binding result in assay [1] is “binds”.

B15: M68 (Second round) (VHH)
VHH: QVQLVESGGGLAQPGGSLTLSCAVSGMPEFARAMGWFRQAPGKERELLAAIEGIGATTYYADSVKGRFTISRDDAANTVLLQMNSLKPDDTAVYYCAAAFSVTIPTRARHWVDWGPGTLVTVSS
notes: Entry already carries A15P; R19T); tail DDDDK-SGGGGS-HHHHHH
Turning to B15, the binding result in assay [1] is listed as “binds”. The dynamic binding capacity at 10% breakthrough is 15.9 with GH (GH stock solution) [2]; 15.3 with GH (GH stock solution) [3]; 12.2 with GH (GH stock solution) [4]; 16.2 with GH (GH stock solution) [5]; 15.4 with GH (GH stock solution) [6]; 5.41 in the assay with GH (GH stock solution) [7].

B16: M72 (Second round) (VHH)
VHH: QVQLVESGGGLAQAGGSLRLSCAVSGMPEFARAMGWFRQAPGKERELLAAIEGIGDTTYYADSVKGRFTISRDDAANTVLLQMNSLKPDDTAVYYCAAAFSVTIPTRARHFVYWGPGTLVTVSS
notes: Entry already carries A57D; D114Y; W100gF; D102Y); tail DDDDK-SGGGGS-HHHHHH
On to B16, for which the binding result in assay [1] is recorded as “binds”.

B17: M70 (Second round) (VHH)
VHH: QVQLVESGGGLAQPGGSLRLSCAVSGMPEFARAMGWFRQAPGKERELLAAIEGIGATTYYADSVKGRFTISRDDAANTVLLQMNSLKPDDTAVYYCAAAFSVTIPTRAEHWVDWGPGTLVTVSS
notes: Entry already carries A15P; R100eE); tail DDDDK-SGGGGS-HHHHHH
In the case of B17, the binding result in assay [1] is “binds”.

B18: M83 (Second round) (VHH)
VHH: QVQLVESGGGLAQAGGSLRLSCAVSGMPEFARAMGWFRQAPGKERELLAAIEGIGDTTYYADSVKGRFTISRDDAANTVLLQMNSLKPDDTAVYYCAAAFSVTIPTRAEHFVDWGQGTLVTVSS
notes: Entry already carries A57D; P117Q; R110E; R100eE; W100gF; P105Q); tail DDDDK-SGGGGS-HHHHHH
As to B18, the binding result in assay [1] is recorded as “binds”.

B19: M76 (Second round) (VHH)
VHH: QVQLVESGGGLAQAGGSLRLSCAVSGMPEFARAMGWFRQAPGKERELLAAIEGIGDTTYYADSVKGRFTISRDDAANTVLLQMNSLKPDDTAVYYCAAAFSVTIPTRARHFVDWGPGTLVTVSS
notes: Entry already carries A57D; G134R; W100gF); tail DDDDK-SGGRGS-HHHHHH
Take B19: the binding result in assay [1] is on record as “binds”.

B20: M71 (Second round) (VHH)
VHH: QVQLVESGGGLAQAGGSLRLSCAVSGMPEFARAMGWFRQAPGKERELLAAIEGIGDTTYYADSVKGRFTISRDDAANTVLLQMNSLKPDDTAVYYCAAAFSVTIPTRAEHWVDWGQGTLVTVSS
notes: Entry already carries A57D; P117Q; R100eE; P105Q); tail DDDDK-SGGGGS-HHHHHH
Take B20: the binding result in assay [1] is “binds”.

B21: M89 (Second round) (VHH)
VHH: QVQLVESGGGLAQAGGSLRLSCAVSGMPEFARAMGWFRQAPGKERELLAAIEGIGDTTYYADSVKGRFTISRDDAANTVLLQMNSLKPDDTAVYYCAAAFSVTIPTRAEHFVDWGPGTLVTVSS
notes: Entry already carries A57D; G134R; R110E; R100eE; W100gF); tail DDDDK-SGGRGS-HHHHHH
In the case of B21, the binding result in assay [1] is on record as “binds”.

B22: M59 (Second round) (VHH)
VHH: QVQLVESGGGLAQAGGSLRLSCAVSGMTEFARAMGWFRQAPGKERELLAAIEGIGDTTYYADSVKGRFTISRDDAANTVLLQMNSLKPDDTAVYYCAAAFSVTIPTRARHWVDWGPGTLVTVSS
notes: Entry already carries A57D; A55D); tail DDDDK-SGGGGS-HHHHHH
Turning to B22, the binding result in assay [1] was “binds”.

B23: M77 (Second round) (VHH)
VHH: QVQLVESGGGLAQAGGSLRLSCAVSGMPEFARAMGWFRQAPGKERELLAAIEGIGDTTYYADSVKGRFTISRDDAANTVLLQMNSLKPDDTAVYYCAAAFSVTIPTRAEHFVDWGPGTLVTVSS
notes: Entry already carries A57D; R110E; R100eE; W100gF); tail DDDDK-SGGGGS-HHHHHH
For B23, in assay [1], the binding result is listed as “binds”.

B24: M64 (Second round) (VHH)
VHH: QVQLVESGGGLAQPGGSLRLSCAVSGMPEFARAMGWFRQAPGKERELLAAIEGIGATTYYADSVKGRFTISRDDAANTVLLQMNSLKPDDTAVYYCAAAFSVTIPTRARHWVDWGPGTLVTVSS
notes: Entry already carries A15P; tail DDDDK-SGGRGS-HHHHHH
As for B24, in assay [1], the binding result is on record as “binds”. This molecule returned an EC50 against that of the WT after 0.5M alkali (% higher than WT) in the assay with rhGH protein of 50.

B25: M69 (Second round) (VHH)
VHH: QVQLVESGGGLAQAGGSLRLSCAVSGMTEFARAMGWFRQAPGKERELLAAIEGIGATTYYADSVKGRFTISRDDAANTVLLQMNSLKPDDTAVYYCAAAFSVTIPTRARHWVDWGPGTLVTVSS
notes: Entry already carries P29T; tail DDDDK-SGGRGS-HHHHHH
With B25, the binding result in assay [1] was “binds”. Moreover, in the assay with rhGH protein, the EC50 against that of the WT after 0.5M alkali (% higher than WT) was found to be 50.
